Measurements from patent US20030235900A1.

Molecular target: Strep-Tactin Macroprep resin (Cat. No. 2-1505-010; IBA GmbH)
Experiment: batch binding to Strep-Tactin Macroprep resin, 1 hour in cold room; binding followed by MTSP10 activity left in the supernatant

B1: MTSP10-ST2 C122S (protease domain of human MTSP10, C122S mutant, with C-terminal Strep-tag II, expressed in Pichia pastoris) (enzyme)
chain: RIIGGTDTLEGGWPWQVSLHFVGSAYCGASVISREWLLSAAHCFHGNRLSDPTPWTAHLGMYVQGNAKFVSPVRRIVVHEYYNSQTFDYDIALLQLSIAWPETLKQLIQPISIPPTGQRVRSGEKCWVTGWGRRHEADNKGSLVLQQAEVELIDQTLCVSTYGIITSRMLCAGIMSGKRDACKGDSGGPLSCRRKSDGKWILTGIVSWGHGCGRPNFPGVYTRVSNFVPWIGGWSHPQFEK
percent of activity retained by the resin: 50 to 70%
